Test results from paper PMC10925414.
pKd: −log10 of the molar value.

Assays:
[1] = biological target: γC3 EC1-EC4 wild type (PcdhγC3 EC1-EC4 ectodomain fragment) (mouse); assay: AUC; sedimentation equilibrium of single proteins; 1.1, 0.73 and 0.37 mg/mL; 10 mM Tris, 150 mM NaCl, 3 mM CaCl2, pH 8.0, 250 mM imidazole; 25°C; 11000-20000 rpm; interference at 675 nm; global fit in SedPhat; dimer to monomers
[2] = biological target: γC3 protocadherin EC1-EC4 (Mus musculus); settings: cited from earlier work

Row | Substance | pKd [1] | pKd [2]
1 | γC3 EC1-EC4 wild type (PcdhγC3 EC1-EC4 ectodomain fragment) (domain or fragment) | 3.94 | –
2 | γC3 protocadherin EC1-EC4 (from UniProt Q9UN70) | – | 3.94
